Experimental data from patent US20120058906A1 (published 2012).
One block for each binder: values may come before it.

Key:
[1] = molecular target: T1, Recombinant Human DLL4 (R&D Systems Cat#1506-D4/CF) (human, UniProt Q9NR61 27-524); test: ECL (MSD multi-spot), antigen spotted on plate; Fab 352.5 nM; blank spot 494
T1 construct: Bought reagent; also called delta-like protein 4

[2] = molecular target: T2, rHuman P-Cadherin/Fc Chimera, CF (R&D Systems Cat#861-PC) (human, UniProt P22223 108-654); test: as above
T2 construct: Bought reagent; also called CDH3; Fc part of the bought chimera not given

[3] = molecular target: T3, rHuman Erythropoietin R/Fc Chimera, CF (R&D Systems Cat#963-ER) (human, UniProt P19235 25-250); test: as above
T3 construct: Bought reagent; also called EPO R/Fc; Epo R; Fc part of the bought chimera not given
T3 sequence: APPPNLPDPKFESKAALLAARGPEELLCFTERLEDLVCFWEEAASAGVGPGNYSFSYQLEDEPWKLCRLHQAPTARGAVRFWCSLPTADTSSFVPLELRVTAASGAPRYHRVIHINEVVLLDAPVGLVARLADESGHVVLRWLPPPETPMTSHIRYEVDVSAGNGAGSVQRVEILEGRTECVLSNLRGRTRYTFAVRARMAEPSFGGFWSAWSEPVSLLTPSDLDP

[4] = molecular target: T4, rHuman EGF R/Fc Chimera, CF (R&D Systems Cat#344-ER) (human, UniProt P00533 25-645); test: as above
T4 construct: Bought reagent; also called epidermal growth factor receptor; Fc part of the bought chimera not given

[5] = molecular target: T5, rHuman ErbB2/Fc Chimera, CF (R&D Systems Cat#1129-ER) (human, UniProt P04626 23-652); test: as above
T5 construct: Bought reagent; also called HER2/neu; human epidermal growth factor 2 receptor; Fc part of the bought chimera not given

[6] = molecular target: T6, rHuman Notch-1/Fc Chimera, CF (R&D Systems Cat#3647-TK) (human, UniProt P46531 19-526); test: as above
T6 construct: Bought reagent; Fc part of the bought chimera not given

[7] = molecular target: T7, rHuman CD44/Fc Chimera, CF (R&D Systems Cat#3660-CD) (human, UniProt P16070 21-220); test: as above
T7 construct: Bought reagent; Fc part of the bought chimera not given

[8] = molecular target: T8, rHuman HGF R/c-MET/Fc Chimera, CF (R&D Systems Cat#358-MT/CF) (human, UniProt P08581 25-932); test: as above
T8 construct: Bought reagent; also called HGF R/Fc; hepatocyte growth factor receptor; Fc part of the bought chimera not given

[9] = molecular target: T9, rHuman IGF-1 sR (IGF-1 sR), CF (R&D Systems Cat#391-GR) (human, UniProt P08069 31-932); test: as above
T9 construct: Bought soluble receptor; also called insulin-like growth factor-1 soluble receptor; IGF-R1

[10] = molecular target: T10, rHuman Notch-1/Fc Chimera, CF (R&D Systems Cat#3647-TK) (human, UniProt P46531 19-526); test: ECL (MSD multi-spot), antigen on plate, Fab 50 nM
T10 construct: Bought Fc chimera; not shown: Fc of the bought chimera

[11] = molecular target: T11, rHuman HGF R/c-MET/Fc Chimera, CF (R&D Systems Cat#358-MT/CF) (human, UniProt P08581 25-932); test: ECL (MSD multi-spot), antigen on plate, Fab 50 nM
T11 construct: Bought Fc chimera; also called HGF R/Fc; not shown: Fc of the bought chimera

[12] = molecular target: T12, rHuman CD44/Fc Chimera, CF (R&D Systems Cat#3660-CD) (human, UniProt P16070 21-220); test: ECL (MSD multi-spot), antigen on plate, Fab 50 nM
T12 construct: Bought Fc chimera; not shown: Fc of the bought chimera

[13] = molecular target: T13, rHuman IGF-1 sR (insulin-like growth factor-1 soluble receptor), CF (R&D Systems Cat#391-GR) (human, UniProt P08069 31-932); test: ECL (MSD multi-spot), antigen on plate, Fab 50 nM
T13 construct: Bought soluble receptor; also called IGF-R1

[14] = molecular target: T14, rHuman EGF R/Fc Chimera, CF (R&D Systems Cat#344-ER) (human, UniProt P00533 25-645); test: ECL (MSD multi-spot), antigen on plate, Fab 50 nM
T14 construct: Bought Fc chimera; also called ErbB-1; not shown: Fc of the bought chimera

[15] = molecular target: T15, rHuman ErbB2/Fc Chimera, CF (R&D Systems Cat#1129-ER) (human, UniProt P04626 23-652); test: ECL (MSD multi-spot), antigen on plate, Fab 50 nM
T15 construct: Bought Fc chimera; also called HER2/neu; not shown: Fc of the bought chimera

[16] = molecular target: T16, Recombinant Human DLL4 (R&D Systems Cat#1506-D4/CF) (human, UniProt Q9NR61 27-524); test: ECL (MSD multi-spot), antigen on plate, Fab 50 nM
T16 construct: Bought recombinant protein; also called delta-like protein 4

[17] = molecular target: T17, rHuman P-Cadherin/Fc Chimera, CF (R&D Systems Cat#861-PC) (human, UniProt P22223 108-654); test: ECL (MSD multi-spot), antigen on plate, Fab 50 nM
T17 construct: Bought Fc chimera; also called CDH3; not shown: Fc of the bought chimera

[18] = molecular target: T10, rHuman Notch-1/Fc Chimera, CF (R&D …); test: ECL (MSD multi-spot), antigen on plate, Fab 50 nM; remark: listed apart in the source
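Further: blank spot per well as comparator with Hit at signal to blank ratio of 4 or more.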

ECL signal [1]: 660 | ECL signal [2]: 649 | ECL signal [3]: 4100 | ECL signal [4]: 769 | ECL signal [5]: 514 | ECL signal [6]: 715 | ECL signal [7]: 556 | ECL signal [8]: 606 | ECL signal [9]: 528
B1: Fab VH1-46_IGHD3-10*01_IGHJ4*01 & B3_IGKJ1*01 (Fab, V domains shown)
VH: QVQLVQSGAEVKKPGASVKVSCKASGYTFTSYYMHWVRQAPGQGLEWMGIINPSGGSTSYAQKFQGRVTMTRDTSTSTVYMELSSLRSEDTAVYYCAREYYYGSGSYYNDYFDYWGQGTLVTVSS
VL: not shown
notes: also called IGHV1-46*01

ECL signal [10]: 477 ECL signal
B2: Fab VH1-46_IGHD6-6*01_IGHJ1*01_S102A_S103P_S104F & L6_IGKJ1*01_S28P (Fab, V domains shown)
VH: QVQLVQSGAEVKKPGASVKVSCKASGYTFTSYYMHWVRQAPGQGLEWMGIINPSGGSTSYAQKFQGRVTMTRDTSTSTVYMELSSLRSEDTAVYYCAREEYAPFSAEYFQHWGQGTLVTVSS
VL: EIVLTQSPATLSLSPGERATLSCRASQPVSSYLAWYQQKPGQAPRLLIYDASNRATGIPARFSGSGSGTDFTLTISSLEPEDFAVYYCQQRSNWPPWTFGQGTKVEIKR
notes: Fab

ECL signal [11]: 257 ECL signal | ECL signal [12]: 262 ECL signal | ECL signal [13]: 257 ECL signal | ECL signal [14]: 350 ECL signal | ECL signal [15]: 397 ECL signal | ECL signal [16]: 35300 ECL signal | ECL signal [17]: 411 ECL signal | ECL signal [18]: 355 ECL signal
B3: Fab VH1-46_IGHD6-6*01_IGHJ1*01_S102A_S103P_S104F & L6_IGKJ1*01_S31K (Fab, V domains shown)
VH: QVQLVQSGAEVKKPGASVKVSCKASGYTFTSYYMHWVRQAPGQGLEWMGIINPSGGSTSYAQKFQGRVTMTRDTSTSTVYMELSSLRSEDTAVYYCAREEYAPFSAEYFQHWGQGTLVTVSS
VL: EIVLTQSPATLSLSPGERATLSCRASQSVSKYLAWYQQKPGQAPRLLIYDASNRATGIPARFSGSGSGTDFTLTISSLEPEDFAVYYCQQRSNWPPWTFGQGTKVEIKR
notes: Fab
